# Experimental data reported in patent US5306619, “Screening assay for the detection of DNA-binding molecules” (Genelabs Technologies, Inc.).
# B1: FIG. 4 HSV oriS oligonucleotide (dsDNA)
# DNA 1: AAGTGAGAATTCGAAGCGTTCGCACTTCGTCCCAAT
# DNA 2: ATTGGGACGAAGTGCGAACGCTTCGAATTCTCACTT
# Tests used:
# UL9 full length = UL9 full length (Herpes simplex virus 1, UniProt P10193 P10193:1-851); experiment: EMSA; dissociation time at 4 C, competition with SEQ 16; conditions: protein: extract; tags: baculovirus/Sf9 expressed, partially purified extract; label: 32P
# [1] = molecular target: UL9-COOH (C-terminal 317 aa of HSV UL9) (Herpes simplex virus 1, UniProt P10193 P10193:535-851); experiment: EMSA; dissociation time at 4 C, competition with SEQ 16; 20 mM HEPES pH 7.2, 50 mM KCl, 1 mM DTT; conditions: tags: GST fusion from pGEX-2T, thrombin cleaved; crude E. coli extracts also used; label: 32P
# Sequence of UL9-COOH (C-terminal 317 aa of HSV UL9) (P10193 535-851, one chain of several): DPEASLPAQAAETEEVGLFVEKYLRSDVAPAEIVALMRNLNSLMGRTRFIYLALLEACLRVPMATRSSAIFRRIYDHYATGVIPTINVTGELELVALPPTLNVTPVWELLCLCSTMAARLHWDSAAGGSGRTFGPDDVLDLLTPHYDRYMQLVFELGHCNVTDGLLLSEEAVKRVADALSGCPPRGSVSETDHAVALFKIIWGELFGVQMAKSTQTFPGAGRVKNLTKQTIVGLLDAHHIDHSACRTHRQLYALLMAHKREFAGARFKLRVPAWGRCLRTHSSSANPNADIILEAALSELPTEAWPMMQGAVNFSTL
# Sequence of UL9 full length (P10193 whole entry, the tested form may be a part, one chain of several): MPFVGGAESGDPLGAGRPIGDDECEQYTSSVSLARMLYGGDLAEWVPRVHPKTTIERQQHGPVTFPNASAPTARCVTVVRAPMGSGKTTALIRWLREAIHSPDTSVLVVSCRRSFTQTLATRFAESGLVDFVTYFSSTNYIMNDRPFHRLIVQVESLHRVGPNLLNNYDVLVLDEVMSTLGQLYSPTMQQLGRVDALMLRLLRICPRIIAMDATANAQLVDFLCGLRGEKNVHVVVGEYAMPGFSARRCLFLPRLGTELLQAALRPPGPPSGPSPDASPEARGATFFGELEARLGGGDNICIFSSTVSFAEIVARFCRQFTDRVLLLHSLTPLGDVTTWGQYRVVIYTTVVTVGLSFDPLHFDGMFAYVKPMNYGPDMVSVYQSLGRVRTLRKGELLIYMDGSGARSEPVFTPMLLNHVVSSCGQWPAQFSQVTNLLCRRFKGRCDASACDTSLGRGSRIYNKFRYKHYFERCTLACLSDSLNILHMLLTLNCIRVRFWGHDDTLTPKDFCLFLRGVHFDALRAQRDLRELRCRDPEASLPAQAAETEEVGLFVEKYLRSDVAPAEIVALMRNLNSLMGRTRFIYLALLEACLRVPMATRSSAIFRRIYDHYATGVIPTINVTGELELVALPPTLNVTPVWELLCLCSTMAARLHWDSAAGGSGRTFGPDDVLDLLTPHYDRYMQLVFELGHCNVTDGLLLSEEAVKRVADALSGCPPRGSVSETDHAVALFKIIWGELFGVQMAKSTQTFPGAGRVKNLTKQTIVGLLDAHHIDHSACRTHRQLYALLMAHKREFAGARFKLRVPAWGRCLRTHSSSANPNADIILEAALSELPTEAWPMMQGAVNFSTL
binder,measurement,setting,value
B1,koff,UL9 full length,~4 h
same,koff,[1],~4 h
